Measured values from paper PMC10540216, “Activity Guided Azide-methyllysine Photo-trapping for Substrate Profiling of Lysine Demethylases” (Journal of the American Chemical Society, 2023).

B1: PLOD2_HUMAN (protein, UniProt O00469 26-737, looked up)
Procollagen-lysine,2-oxoglutar …: ADSEKPSSIPTDKLLVITVATKESDGFHRFMQSAKYFNYTVKVLGQGEEWRGGDGINSIGGGQKVRLMKEVMEHYADQDDLVVMFTECFDVIFAGGPEEVLKKFQKANHKVVFAADGILWPDKRLADKYPVVHIGKRYLNSGGFIGYAPYVNRIVQQWNLQDNDDDQLFYTKVYIDPLKREAINITLDHKCKIFQTLNGAVDEVVLKFENGKARAKNTFYETLPVAINGNGPTKILLNYFGNYVPNSWTQDNGCTLCEFDTVDLSAVDVHPNVSIGVFIEQPTPFLPRFLDILLTLDYPKEALKLFIHNKEVYHEKDIKVFFDKAKHEIKTIKIVGPEENLSQAEARNMGMDFCRQDEKCDYYFSVDADVVLTNPRTLKILIEQNRKIIAPLVTRHGKLWSNFWGALSPDGYYARSEDYVDIVQGNRVGVWNVPYMANVYLIKGKTLRSEMNERNYFVRDKLDPDMALCRNAREMGVFMYISNRHEFGRLLSTANYNTSHYNNDLWQIFENPVDWKEKYINRDYSKIFTENIVEQPCPDVFWFPIFSEKACDELVEEMEHYGKWSGGKHHDSRISGGYENVPTDDIHMKQVDLENVWLHFIREFIAPVTLKVFAGYYTKGFALLNFVVKYSPERQRSLRPHHDASTFTINIALNNVGEDFQGGGCKFLRYNCSIESPRKGWSFMHPGRLTHLHEGLPVKNGTRYIAVSFIDP
B2: MTA2_HUMAN (protein, UniProt O94776 1-668, looked up)
Metastasis-associated protein …: MAANMYRVGDYVYFENSSSNPYLVRRIEELNKTANGNVEAKVVCLFRRRDISSSLNSLADSNAREFEEESKQPGVSEQQRHQLKHRELFLSRQFESLPATHIRGKCSVTLLNETDILSQYLEKEDCFFYSLVFDPVQKTLLADQGEIRVGCKYQAEIPDRLVEGESDNRNQQKMEMKVWDPDNPLTDRQIDQFLVVARAVGTFARALDCSSSIRQPSLHMSAAAASRDITLFHAMDTLQRNGYDLAKAMSTLVPQGGPVLCRDEMEEWSASEAMLFEEALEKYGKDFNDIRQDFLPWKSLASIVQFYYMWKTTDRYIQQKRLKAAEADSKLKQVYIPTYTKPNPNQIISVGSKPGMNGAGFQKGLTCESCHTTQSAQWYAWGPPNMQCRLCASCWIYWKKYGGLKTPTQLEGATRGTTEPHSRGHLSRPEAQSLSPYTTSANRAKLLAKNRQTFLLQTTKLTRLARRMCRDLLQPRRAARRPYAPINANAIKAECSIRLPKAAKTPLKIHPLVRLPLATIVKDLVAQAPLKPKTPRGTKTPINRNQLSQNRGLGGIMVKRAYETMAGAGVPFSANGRPLASGIRSSSQPAAKRQKLNPADAPNPVVFVATKDTRALRKALTHLEMRRAARRPNLPLKVKPTLIAVRPPVPLPAPSHPASTNEPIVLED
B3: SATB2_HUMAN (protein, UniProt Q9UPW6 1-733, looked up)
DNA-binding protein SATB2: MERRSESPCLRDSPDRRSGSPDVKGPPPVKVARLEQNGSPMGARGRPNGAVAKAVGGLMIPVFCVVEQLDGSLEYDNREEHAEFVLVRKDVLFSQLVETALLALGYSHSSAAQAQGIIKLGRWNPLPLSYVTDAPDATVADMLQDVYHVVTLKIQLQSCSKLEDLPAEQWNHATVRNALKELLKEMNQSTLAKECPLSQSMISSIVNSTYYANVSATKCQEFGRWYKKYKKIKVERVERENLSDYCVLGQRPMHLPNMNQLASLGKTNEQSPHSQIHHSTPIRNQVPALQPIMSPGLLSPQLSPQLVRQQIAMAHLINQQIAVSRLLAHQHPQAINQQFLNHPPIPRAVKPEPTNSSVEVSPDIYQQVRDELKRASVSQAVFARVAFNRTQGLLSEILRKEEDPRTASQSLLVNLRAMQNFLNLPEVERDRIYQDERERSMNPNVSMVSSASSSPSSSRTPQAKTSTPTTDLPIKVDGANINITAAIYDEIQQEMKRAKVSQALFAKVAANKSQGWLCELLRWKENPSPENRTLWENLCTIRRFLNLPQHERDVIYEEESRHHHSERMQHVVQLPPEPVQVLHRQQSQPAKESSPPREEAPPPPPPTEDSCAKKPRSRTKISLEALGILQSFIHDVGLYPDQEAIHTLSAQLDLPKHTIIKFFQNQRYHVKHHGKLKEHLGSAVDVAEYKDEELLTESEENDSEEGSEEMYKVEAEEENADKSKAAPAEIDQR
B4: ODP2_HUMAN (protein, UniProt P10515 87-647, looked up)
Dihydrolipoyllysine-residue …: SLPPHQKVPLPSLSPTMQAGTIARWEKKEGDKINEGDLIAEVETDKATVGFESLEECYMAKILVAEGTRDVPIGAIICITVGKPEDIEAFKNYTLDSSAAPTPQAAPAPTPAATASPPTPSAQAPGSSYPPHMQVLLPALSPTMTMGTVQRWEKKVGEKLSEGDLLAEIETDKATIGFEVQEEGYLAKILVPEGTRDVPLGTPLCIIVEKEADISAFADYRPTEVTDLKPQVPPPTPPPVAAVPPTPQPLAPTPSAPCPATPAGPKGRVFVSPLAKKLAVEKGIDLTQVKGTGPDGRITKKDIDSFVPSKVAPAPAAVVPPTGPGMAPVPTGVFTDIPISNIRRVIAQRLMQSKQTIPHYYLSIDVNMGEVLLVRKELNKILEGRSKISVNDFIIKASALACLKVPEANSSWMDTVIRQNHVVDVSVAVSTPAGLITPIVFNAHIKGVETIANDVVSLATKAREGKLQPHEFQGGTFTISNLGMFGIKNFSAIINPPQACILAIGASEDKLVPADNEKGFDVASMMSVTLSCDHRVVDGAVGAQWLAEFRKYLEKPITMLL
B5: PABP4_HUMAN (protein, UniProt Q13310 1-644, looked up)
Polyadenylate-binding protein …: MNAAASSYPMASLYVGDLHSDVTEAMLYEKFSPAGPVLSIRVCRDMITRRSLGYAYVNFQQPADAERALDTMNFDVIKGKPIRIMWSQRDPSLRKSGVGNVFIKNLDKSIDNKALYDTFSAFGNILSCKVVCDENGSKGYAFVHFETQEAADKAIEKMNGMLLNDRKVFVGRFKSRKEREAELGAKAKEFTNVYIKNFGEEVDDESLKELFSQFGKTLSVKVMRDPNGKSKGFGFVSYEKHEDANKAVEEMNGKEISGKIIFVGRAQKKVERQAELKRKFEQLKQERISRYQGVNLYIKNLDDTIDDEKLRKEFSPFGSITSAKVMLEDGRSKGFGFVCFSSPEEATKAVTEMNGRIVGSKPLYVALAQRKEERKAHLTNQYMQRVAGMRALPANAILNQFQPAAGGYFVPAVPQAQGRPPYYTPNQLAQMRPNPRWQQGGRPQGFQGMPSAIRQSGPRPTLRHLAPTGSECPDRLAMDFGGAGAAQQGLTDSCQSGGVPTAVQNLAPRAAVAAAAPRAVAPYKYASSVRSPHPAIQPLQAPQPAVHVQGQEPLTASMLAAAPPQEQKQMLGERLFPLIQTMHSNLAGKITGMLLEIDNSELLHMLESPESLRSKVDEAVAVLQAHHAKKEAAQKVGAVAAATS
B6: CSTF3_HUMAN (protein, UniProt Q12996 2-717, looked up)
Cleavage stimulation factor …: SGDGATEQAAEYVPEKVKKAEKKLEENPYDLDAWSILIREAQNQPIDKARKTYERLVAQFPSSGRFWKLYIEAEIKAKNYDKVEKLFQRCLMKVLHIDLWKCYLSYVRETKGKLPSYKEKMAQAYDFALDKIGMEIMSYQIWVDYINFLKGVEAVGSYAENQRITAVRRVYQRGCVNPMINIEQLWRDYNKYEEGINIHLAKKMIEDRSRDYMNARRVAKEYETVMKGLDRNAPSVPPQNTPQEAQQVDMWKKYIQWEKSNPLRTEDQTLITKRVMFAYEQCLLVLGHHPDIWYEAAQYLEQSSKLLAEKGDMNNAKLFSDEAANIYERAISTLLKKNMLLYFAYADYEESRMKYEKVHSIYNRLLAIEDIDPTLVYIQYMKFARRAEGIKSGRMIFKKAREDTRTRHHVYVTAALMEYYCSKDKSVAFKIFELGLKKYGDIPEYVLAYIDYLSHLNEDNNTRVLFERVLTSGSLPPEKSGEIWARFLAFESNIGDLASILKVEKRRFTAFKEEYEGKETALLVDRYKFMDLYPCSASELKALGYKDVSRAKLAAIIPDPVVAPSIVPVLKDEVDRKPEYPKPDTQQMIPFQPRHLAPPGLHPVPGGVFPVPPAAVVLMKLLPPPICFQGPFVQVDELMEIFRRCKIPNTVEEAVRIITGGAPELAVEGNGPVESNAVLTKAVKRPNEDSDEDEEKGAVVPPVHDIYRARQQKRIR
B7: DDX1_HUMAN (protein, UniProt Q92499 1-740, looked up)
ATP-dependent RNA helicase …: MAAFSEMGVMPEIAQAVEEMDWLLPTDIQAESIPLILGGGDVLMAAETGSGKTGAFSIPVIQIVYETLKDQQEGKKGKTTIKTGASVLNKWQMNPYDRGSAFAIGSDGLCCQSREVKEWHGCRATKGLMKGKHYYEVSCHDQGLCRVGWSTMQASLDLGTDKFGFGFGGTGKKSHNKQFDNYGEEFTMHDTIGCYLDIDKGHVKFSKNGKDLGLAFEIPPHMKNQALFPACVLKNAELKFNFGEEEFKFPPKDGFVALSKAPDGYIVKSQHSGNAQVTQTKFLPNAPKALIVEPSRELAEQTLNNIKQFKKYIDNPKLRELLIIGGVAARDQLSVLENGVDIVVGTPGRLDDLVSTGKLNLSQVRFLVLDEADGLLSQGYSDFINRMHNQIPQVTSDGKRLQVIVCSATLHSFDVKKLSEKIMHFPTWVDLKGEDSVPDTVHHVVVPVNPKTDRLWERLGKSHIRTDDVHAKDNTRPGANSPEMWSEAIKILKGEYAVRAIKEHKMDQAIIFCRTKIDCDNLEQYFIQQGGGPDKKGHQFSCVCLHGDRKPHERKQNLERFKKGDVRFLICTDVAARGIDIHGVPYVINVTLPDEKQNYVHRIGRVGRAERMGLAISLVATEKEKVWYHVCSSRGKGCYNTRLKEDGGCTIWYNEMQLLSEIEEHLNCTISQVEPDIKVPVDEFDGKVTYGQKRAAGGGSYKGHVDILAPTVQELAALEKEAQTSFLHLGYLPNQLFRTF
B8: P66A_HUMAN (protein, UniProt Q86YP4 1-633, looked up)
Transcriptional repressor …: MTEEACRTRSQKRALERDPTEDDVESKKIKMERGLLASDLNTDGDMRVTPEPGAGPTQGLLRATEATAMAMGRGEGLVGDGPVDMRTSHSDMKSERRPPSPDVIVLSDNEQPSSPRVNGLTTVALKETSTEALMKSSPEERERMIKQLKEELRLEEAKLVLLKKLRQSQIQKEATAQKPTGSVGSTVTTPPPLVRGTQNIPAGKPSLQTSSARMPGSVIPPPLVRGGQQASSKLGPQASSQVVMPPLVRGAQQIHSIRQHSSTGPPPLLLAPRASVPSVQIQGQRIIQQGLIRVANVPNTSLLVNIPQPTPASLKGTTATSAQANSTPTSVASVVTSAESPASRQAAAKLALRKQLEKTLLEIPPPKPPAPEMNFLPSAANNEFIYLVGLEEVVQNLLETQGRMSAATVLSREPYMCAQCKTDFTCRWREEKSGAIMCENCMTTNQKKALKVEHTSRLKAAFVKALQQEQEIEQRLLQQGTAPAQAKAEPTAAPHPVLKQVIKPRRKLAFRSGEARDWSNGAVLQASSQLSRGSATTPRGVLHTFSPSPKLQNSASATALVSRTGRHSERTVSAGKGSATSNWKKTPLSTGGTLAFVSPSLAVHKSSSAVDRQREYLLDMIPPRSIPQSATWK

Tested on: KDM4A-I71AzF
Experiment: CASI: photo-crosslinking with HEK293T cell extracts, StrepTactin enrichment and LC-MS/MS proteomics;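 also: lysates from HEK293T cells pretreated with a KDM4 inhibitor to raise proteome methylation, affinity-purified after ±UV, gel-resolved, trypsin-digested, with exclusive unique peptides per protein averaged per condition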
Type: binding, human
Conditions: sheet "Final results but with 0.01"

For B1, which “Fold change (+UV/-UV)” value is on record?
The value was 0.75.

B2 was tested. Which “Fold change (+UV/-UV)” value did it give?
The value was 4.

How did the “Fold change (+UV/-UV)” value turn out when B3 was run?
Its value is 1.

With B4 as the molecule, how does the “Fold change (+UV/-UV)” value read?
Its value is 1.

With B5 as the molecule, how does the “Fold change (+UV/-UV)” value read?
The value was 0.

For B6, which “Fold change (+UV/-UV)” value is on record?
The value was 0.

For B7, which “Fold change (+UV/-UV)” value is on record?
Its value is 1.333.

B8 was tested. Which “Fold change (+UV/-UV)” value did it give?
Its value is 1.5.
